# The supplement of paper PMC12764529
# ± gives the half width of the 95% confidence interval.
# Experiment: folding stability dG unfold from chymotrypsin proteolysis; higher = more stable
# Outline: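 Unfolding free energy was derived, per protease or combined, by relating Bayesian-fitted K50 values from sequencing counts to a sequence-predicted unfolded-state K50 and a shared folded-state K50. The underlying digests exposed cysteine-free mini-proteins under 80 residues, in a PA-tagged cDNA display construct, to trypsin and chymotrypsin at 11 threefold-diluted concentrations and to a no-protease condition. A filter kept only designs with AlphaFold2 dimer inter-PAE above 15.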
row,Sequence,folding stability dG unfold [kcal/mol]
1,SAGGMPDRVRPFPFRAPVLRLDPPEPEEVEVVAFVFPDNRVLALARSPDPGRVLLAVDDGDRVLVADASAGG [r13_117_TrMRF],0.12 ± 0.15
2,SAGGTIEEIKEALKKLPEGAVVEVTTENGEKLEFKSLEEIKKATITNENGEKIKITEVKVYPAKKEKSAGGS [r16_680_TrROS_Hall],0.569 ± 0.16
3,SAGGKITIDVNYNPEENNFRIKITWPNGKEKELPIPMEGMPAEDMRREAREFAQNLNPDGLKEVEIEPSAGG [r13_267_TrROS],0.369 ± 0.21
4,SAGGEITIVIEGMSEEEREKALEEVRNKIKELKEKHPEKKITIVVDTPEAKKVAEELKKEGYEVEILSAGGS [r16_450_TrROS_Hall],2.06 ± 0.15
5,SAGGSAGGSAGMVIKSPDGRIIEVEEEEEGEKLKIKRITYVGDKYTPSEEEIEVPPVDLKSAGGSAGGSAGG [r11_106_JUSTAS],-0.201 ± 0.54
6,SAGGSAGGSAGYKPDPDGQYTQEMRLPREPPRIRITIPMSPNDPDKAQKFINNLAEEFGISAGGSAGGSAGG [r17_501_TrROS],-0.0614 ± 0.64
7,SAGGGMPVPEVEVELLEEREVPGGRVTLGRAKTPDAWETLTTEYDPATGRRRTWRETPEGVTPYAEEGSAGG [r13_445_JUSTAS],-0.567 ± 0.65
8,SAGGSAMIEVRTVAGEPVEVTPIPEDEVLVARTPGGRKAPFLLGEDVLRELVVEPDAPPDLFIVPGSAGGSA [r15_709_TrMRF],-0.141 ± 0.093
9,SAGGSAGGSAGGMTETKVYPKSSEGGKLTTITTTTTPLKDPKGNWSTKTTTTTSVSPATSAGGSAGGSAGGS [r10_496_JUSTAS],0.131 ± 0.15
10,SAGGSDLSSASFSSSPSTLPDGRSLTTYPAVTLPDGTVATLTVETDPATGAPTVTLTLGDTDIVLATSAGGS [r16_766_JUSTAS],0.0331 ± 0.32
11,SAGGSAGGSAGSSSSAVRESFQKSPTNVVTRTVTTYDANPSVLSTSSTTVPLSSVPPELLSAGGSAGGSAGG [r11_493_JUSTAS],0.44 ± 0.13
12,SAGGSAGGSAGGSGRVEIELEFKLENGFYVRIKAEIEFEEDGKIRIKVEIELLPEELEESAGGSAGGSAGGS [r4_297_TrROS_Hall],3.67 ± 0.34
13,SAGGSAGHMIEKVTTTSPDNTTTTVSLTPPDAPLDIKLPNGASATQTPLPGGRLRVTTTTTTPAAASAGGSA [r15_523_JUSTAS],0.841 ± 0.062
14,SAGGMPVPKEKVKSVLYLPHPESDEPEVLVLAELGGKPVLFVIPSELSLEEAIKAVEEGVEAGPIDLGSAGG [r13_225_TrMRF],0.402 ± 0.14
15,SAGGSKEEIEKKLKELAEKLGVEVEDIEIKPLSNGKYIAVVKFKDNPNVYAVYEFDGDEIKIVEIKPSAGGS [r8_432_TrMRF],5.04 ± 0.26
16,SAGGSAGGSAGGRTYRLTLTRPDGRPLTFEVPTDTAPEHVELLKSLFPDEEIEADISDVESAGGSAGGSAGG [r7_349_TrMRF],0.491 ± 0.22
17,SAGGSAGGSAGGDEIAKQIAEHFREKGLDKNREIEIRNPENGEKITVRYTPEGGDFEVEPSAGGSAGGSAGG [r7_301_TrROS],-0.057 ± 0.17
18,SAGGSAGGSALRPDEPFLVRVRIVDPRPGEGPPVERELVLPLEAILRLIPPGAGADVELLPSAGGSAGGSAG [r3_223_TrMRF],-0.747 ± 0.94
19,SAGGSAGGSASSVSSLSEETLPDGKPVLVRKETVYDPKHGLTGLSVTYYTLGGKKLKTEVVSAGGSAGGSAG [r3_154_JUSTAS],-0.477 ± 0.26
20,SAGGSAGGSAGMKTKATFVIDNEEYDATIDPGTPKNSTATVTKPDSTTTITVTNIKLFPESAGGSAGGSAGG [r11_247_JUSTAS],0.897 ± 0.062
21,SAGGGSSVTYDPATGEVTVTLHPVDPHPGRLRSRTLPLPAPGSPEEVRERIRALVEAEPAWSTDLTAASAGG [r13_284_JUSTAS],0.892 ± 0.12
22,SMKVLEGEEEAKKLAEEEGVPVIPVPADVSLEEIKKRIKETPGFPPDTVVATVIPKEPGRTTVIVLPLGKSA [r9_314_JUSTAS],0.474 ± 0.035
23,SAGGSAGGSAGRRSVPEEVVEAIAEELPREGLTPKSIEVVEGEDEFEAVIEYDDRTITVAGSAGGSAGGSAG [r3_395_JUSTAS],0.492 ± 0.023
24,SAGGSAGGSAGMESKVVTLDVPLAPDETAEAVAARLRAADPAAVLLGYDPAAGRVTVRVASAGGSAGGSAGG [r11_465_JUSTAS],0.411 ± 0.078
25,SAGGSAGMPTTVFLTRPGPRAITMRTDPVSGTVTFTLPSGEVTTTPLSTVKELKVPPDIATVTILASAGGSA [r15_1043_JUSTAS],-0.365 ± 0.29

row,Sequence,folding stability dG unfold [kcal/mol]
1,SAGGSALPPGQKIKMKFPDDGKKMTITFNPGQNNIEIENDGKKETYPFDSVEDLLDEFGWKVLDIESAGGSA [r15_500_TrROS],0.465 ± 0.073
2,SAGGAPAAGDVVETETLRLERDEPDTITLTRLRTVEVVLPDGRVLTRTESETVRLEATDEEAVELAESSAGG [r13_544_TrMRF],0.883 ± 0.22
3,SAGGSAGGSGTSTSSSGPSTVTITLHTDSPVTLTVPPETTEELAAELKARGYNLEVKVTPAPASAGGSAGGS [r20_124_JUSTAS],0.161 ± 0.12
4,SAGGSAGGSAGAVTVTLTGGPTLEIPIPDVPPEELGTPEVVARIEAIAAARGLTIASIRLSAGGSAGGSAGG [r11_467_JUSTAS],-0.14 ± 0.14
5,SAGGSAGGSAGGMFYIKIPNGKQFPFKSKEEFKDQLRERNGRPMKIKDIEIQPLDPNQFSAGGSAGGSAGGS [r10_62_TrROS],0.586 ± 0.26
6,SAGGSAGGYRITIKDPDGVKIEIWQGPNGMMPIKVENPNGKKRERMVNGPPGDIEDFLKELLKQSAGGSAGG [r6_27_TrROS],0.378 ± 0.31
7,SAGGSAGGSSPKAQRLQDRIRQEFPPNEIDKVEMSGDKIVIHGRPGYRQRIQEELGLKNIEIVSAGGSAGGS [r12_748_TrROS],0.344 ± 0.098
8,SAGGGSTVVTTTEPAAAVRARVEAEARARGVALDVDVTVEPTPEGPVVTFDVRVDPGAPAVPAANRVSAGGS [r16_262_JUSTAS],0.0214 ± 0.23
9,SADPALEAEARARARAEARARGVERLEFELTREVTRESLVRFPGGELREVVERREVRYRVEVEVPPEAASAG [r14_232_JUSTAS],0.963 ± 0.077
10,SAGGSAGGSAGKNNKVKLTYTIEVEGEGKPKKIKIEYYLSPNGIPEPPELIKSKAGGLAKSAGGSAGGSAGG [r17_373_TrMRF],0.306 ± 0.13
11,SAGGSAGGSAGGAVERFPGPATVTALPDGRRLVTTTDPSGRPTLTLLEVETPERVTAHPASAGGSAGGSAGG [r7_423_JUSTAS],0.286 ± 0.038
12,SAGGSAGGSAGMIVVPPEDLENLPPWYSVEPGEDSVTVWDESNPVVVPRDEPALVSPPERSAGGSAGGSAGG [r17_91_JUSTAS],0.72 ± 0.079
13,SAGEPNKIKVKVKIRMWMPRKDPDGQQAEPHPMPMTFEYKAPWEDAKNIIDSMPPGMQIDKIDKIEPLSAGG [r19_114_TrROS],0.226 ± 0.3
14,SDKDEKVIPSTSTSTDPETGTVTTTSTNTTITKGKIISPTTVTTTYPTATTTTTSTTIVDPNGNITTINSSA [r9_1015_JUSTAS],0.97 ± 0.042
15,SAGGGSSSSSIATETFTKEVEVPTEDGKLKKVLVTTTVSRPISLEPKTGKKYSLSTTVTTTTVSPEELSAGG [r13_312_JUSTAS],-0.461 ± 0.58
16,SAGGSAGGSAGGKKEREFKFPGAPIQAPVERNPANGKLKIDVEVTGDNPDWAKRLADAFSAGGSAGGSAGGS [r10_582_TrROS],-0.513 ± 0.56
17,SAGGSAGGSIKITLETETETYLDPEDPNRPVTKVKAVKPTIEVPEENPEKLKELAEKLGLELESAGGSAGGS [r12_249_TrMRF],0.723 ± 0.034
18,SAGGMTITLPKNMTKEELEALAKKLEEETGLKVTIEYNEETNEVTITVEGLSEEEQERIKKLLEEAASAGGS [r16_227_TrROS_Hall],3.49 ± 0.34
19,SAGGSAPKRLRIKFKDPDGKTQKIKIPPGIKSINIQPNNDYVSLMIHNPEDGQSRMLPPMRVDEITSAGGSA [r15_133_TrROS],-0.899 ± 0.48
20,SAGSHEAWFPIPELLNDPGLEDAWIRVTVHPTPNGNIDIDIEPEPVPKPKITPEEMQEQMEENNKQMKSAGG [r19_313_TrROS],-0.435 ± 0.064
21,SAGGSAKLPPGQRVRLEIEHPAHGWTHEHTFPIKSVEEFKQSLEIPMPNPNGEPMPMRVKILDVEKSAGGSA [r15_797_TrROS],-0.363 ± 0.48
22,SGGATVEAFRRAPPGVRARILVEERGEELIVRLEIEGDDRRDEAEFPDPEEALARLLAAGVPVVVDELPASA [r9_1021_TrMRF],-0.708 ± 0.76
23,SAGKIVIEGEPEKLPEAIEEALKNNPDLKKVTIYYGDKSEEFEKDEEVKFFKPKKNKDGKPFMVLVVEDSAG [r5_130_TrMRF],0.756 ± 0.23
24,SAGGSAGGSAGGTTLLFPDKIIRTLPLPPGAVFDVPPGLTLEGVEEDPSTGTLTVTVKGLSAGGSAGGSAGG [r11_942_JUSTAS],0.0814 ± 0.14
